First the molecules themselves.
B1: MOR020159 (antibody, human IgG1, kappa, L234A L235A, V domains shown)
VH: QVQLVQSGAEVKKPGSSVKVSCKASGGTFSDYAISWVRQAPGQGLEWMGGIVPIVGTANYAQKFQGRVTITADESTSTAYMELSSLRSEDTAVYYCARDSSTSYYYYFDYWGQGTLVTVSS
VL: DIQMTQSPSSLSASVGDRVTITCRASQDINSWLAWYQQKPGKAPKLLIYQASNLQSGVPSRFSGSGSGTDFTLTISSLQPEDFATYYCQQIDHTPFTFGQGTKVEIKR
notes: also called MOR20159
B2: MOR020152 (antibody, human IgG1, lambda, L234A L235A, V domains shown)
VH: QVQLVQSGAEVKKPGSSVKVSCKASGGTFSSYAISWVRQAPGQGLEWMGRIIPIFGGANYAQKFQGRVTITADESTSTAYMELSSLRSEDTAVYYCARDPLYRSDYYYHWFDFWGQGTLVTVSS
VL: DIALTQPASVSGSPGQSITISCTGTSSDVGNFNYVSWYQQHPGKAPKLMIYGVNNRPSGVSNRFSGSKSGNTASLTISGLQAEDEADYYCAAYGWALDEVVFGGGTKLTVLG
notes: also called MOR20152
B3: MOR020144 (antibody, human IgG1, lambda, L234A L235A, V domains shown)
VH: QVQLLESGGGLVQPGGSLRLSCAASGFTFSDYALHWVRQAPGKGLEWVSVISYSGGYTYYADSVKGRFTISRDNSKNTLYLQMNSLRAEDTAVYYCARSPGLTSYHDSWGQGTLVTVSS
VL: DIVLTQPPSVSGAPGQRVTISCSGSSSNIGSNYVSWYQQLPGTAPKLLIHSNSHRPSGVPDRFSGSKSGTSASLAITGLQAEDEADYYCQSWDYESERVVFGGGTKLTVLG
notes: also called MOR20144
B4: MOR020133 (antibody, human IgG1, lambda, L234A L235A, V domains shown)
VH: QVQLVQSGAEVKKPGESLKISCKGSGYSFTNYWIAWVRQMPGKGLEWMGRIFPGDSTTTYSPSFQGQVTISADKSISTAYLQWSSLKASDTAMYYCARGKRGATHPTQYEGWEVYGFDPWGQGTLVTVSS
VL: DIELTQPPSVSVSPGQTASITCSGDALGGKYASWYQQKPGQAPVLVIYDDNKRPSGIPERFSGSNSGNTATLTISGTQAEDEADYYCQSWAFYSGVFGGGTKLTVLG
notes: also called MOR20133
B5: MOR020151 (antibody, human IgG1, lambda, L234A L235A, V domains shown)
VH: QVQLVESGGGLVKPGGSLRLSCAASGFTFSSYALSWVRQAPGKGLEWVGRIKSKTMGGTSDYAAPVKGRFTISRDDSKNTLYLQMNSLKTEDTAVYYCARDFWADHYYYFDYWGQGTLVTVSS
VL: DIALTQPASVSGSPGQSITISCTGTSSDVGYINYVNWYQQHPGKAPKLMIYEVSNRPSGVSNRFSGSKSGNTASLTISGLQAEDEADYYCASWDWYDNVVFGGGTKLTVLG
notes: also called MOR20151
B6: MOR020052 (antibody, human IgG1, lambda, L234A L235A, V domains shown)
VH: QVQLVQSGAEVKKPGSSVKVSCKASGGTFSDYAISWVRQAPGQGLEWMGGIIPGFGQANYAQKFQGRVTITADESTSTAYMELSSLRSEDTAVYYCAREPSPLYGPYSDYVMDPWGQGTLVTVSS
VL: B5 VL with I32F, Y34F, N36S, E52D, W93Y, D94G, Y96D, D97S, N98S, V99W
notes: also called MOR20052
B7: MOR020148 (antibody, human IgG1, lambda, L234A L235A, V domains shown)
VH: QVQLLESGGGLVQSGGSLRLSCAASGFTFRSGAAMHWVRQAPGKGLEWVSGISSFSSSTDYADSVKGRFTISRDNSKNTLYLQMNSLRAEDTAVYYCARNFKYAMDYWGQGTLVTVSS
VL: DIALTQPASVSGSPGQSITISCTGTSSDVGSINYVSWYQQHPGKAPKMIYAVSYRPSGVSNRFSGSKSGNTASLTISGLQAEDEADYYCQVWDWRSDSRVFGGGTKLTVLG
notes: also called MOR20148

Substitutions are numbered along the chain they refer to.

One test addresses T1, APP-Avi-soluble human LOX-1(61-273) (human, UniProt P78380 61-273). Briefly: competition ELISA: oxLDL binding to plate-bound biotinylated human sLOX-1. The procedure: NeutrAvidin 384 well plates were coated with 2.5 μg/ml biotinylated LOX-1 diluted in PBS. After blocking with 25% Block Ace (AbD Serotec, Cat#BUF029) in PBS, purified Fabs or IgGs diluted in PBS/1% BSA were added. Subsequently OxLDL (copper-sulfate oxidized LDL, Kalen Biomedical #770202) or MDA-LDL (Academy Biomedical, #20P-UMD-L102) ligand diluted in PBS/1% BSA were allowed to bind to coated LOX-1. Secondary antibody (HRP conjugated sheep anti ApoB IgG; The Binding Site) diluted 1:1,000 in PBS/1% BSA was added followed by addition of TMB substrate (Thermo Scientific). After 10 minutes 1M H2SO4 was added and absorbance was determined at 450 nm. During early screenings, Fab fragments were also tested in this oxLDL binding assay using Fab-containing crude E. coli lysates.
The ability of LOX-1 antibodies to inhibit oxLDL binding to LOX-1 protein was determined using the method described in Example 4. In addition to “high binding OxLDL” from Kalen Biomedical (catalog number 770212-7), which is generated by copper sulfate mediated oxidation of LDL, two other forms of modified LDL were tested in this assay: malondialdehyde modified LDL (Academy Bio-Medical Co. catalog number 20P-MD-L105) and hypochlorite modified LDL. Hypochlorite modified LDL was prepared according to the following procedure. Human LDL (Kalen Biomedical catalog number 770200-4) was diluted with PBS to a final concentration of 0.25 mg/mL. Sodium hypochlorite (NaOCI, JT Baker catalog number 9416-01) was then added to 0.1 mM final concentration. The solution was incubated at room temperate for 4 hours, then quenched by adding L-methionine to a final concentration of reaction by adding 5 μl of 100 mM Mehionine per 200 μl total volume.
(In general: In an ELISA, binding on a coated surface is turned into a signal by an enzyme label.)
Usually IC50 stands for the concentration at which inhibition is half-maximal. B1: the half-inhibitory concentration (IC50) was determined as 5 nM.
In turn, B2 showed an IC50 of 5 nM.
The molecule B3 gave an IC50 of 5 nM.
Turning to B4, the half-maximal inhibitory concentration (IC50) worked out at 6 nM.
B5 returned an IC50 of 7 nM.
Still for that read-out and setting: then B6, with 12 nM.
Regarding B7, the IC50 was 9 nM. The IC50 values of the last two molecules are within 1.5-fold of each other.

In the next test the target is T1, APP-Avi-soluble human LOX-1(61-273). Briefly: SET, IgG vs soluble human LOX-1. The procedure:
Affinity determination for anti-LOX-1 IgGs using Solution Equilibrium Titration (SET) was basically performed as described in the literature (Friguet et al., 1985 J Immunol Methods 77: 305-319). The assays were performed in a 96-well polypropylene plate (Thermo Scientific, Catalog no. AB-1127) using a constant concentration of LOX-1 antibody mixed with different concentrations of non-biotinylated human or cynomolgus monkey LOX-1 protein and incubated at 22° C. for 14 hours with constant shaking (300 rpm).
On a pre-blocked MSD plate (Meso Scale Discovery, catalog no. L21SA) biotinylated human or cynomolgus monkey soluble LOX-1 protein was immobilized and washed afterwards. The equilibrium binding reactions were then applied to the MSD plate with immobilized LOX-1 and incubated for 30 min. The unbound material was removed by washing the plate, and the captured antibody was detected by adding Sulfo-tagged goat anti-human IgG (Meso Scale Discovery, catalog no. R3AJ-1). After incubation and washing 1×MSD read buffer T(Meso Scale Discovery, catalog no. R92TC-2) was added and the plate was developed using a Sector Imager 6000 (Meso Scale Discovery). The data were transferred to Excel for analysis and plotted using GraphPad Prism v5. The KD values were determined by fitting the data to the following equation: […]
With B1, the Kd was 0.56 nM.
As for B2, the Kd was found to be 0.0014 nM.
As for B3, the Kd was 0.0002 nM.
Molecule B4 had a Kd of 0.144 nM.
Consider B5, for which the Kd was found to be 0.27 nM.
B6: the Kd was determined as 0.5 nM.
Same read-out and setting: under B7 stands 6.5 nM.

The record behind these values is US20170260272A1 (Novartis, published 2017).
